Results taken from the supplement of paper PMC9112550, “Optimization of the antimicrobial peptide Bac7 by deep mutational scanning” (BMC Biology, 2022).

Tested on: Escherichia coli TOP10
Assay: shrunken log2 fold change of peptide-encoding DNA abundance (4.5 h post-induction vs induction); higher = less antimicrobial activity (less host growth inhibition)
Details: time post-induction: 4.5 h; library: site-saturation at positions 5, 18, 19, 20
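Note: peptides expressed intracellularly from a pBAD plasmid library in pooled LB shake-flask culture, induced with 0.3% L-arabinose, DNA abundance read by NGS, three biological replicates, DESeq2 with apeglm shrinkage.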

Sequence | shrunken log2 fold change
RRIRERPPRLPRPRPRPPRAPRP | 0.453
RRIRHRPPRLPRPRPRPHPKPRP | 0.0027
RRIRNRPPRLPRPRPRPELPPRP | -0.098
RRIRWRPPRLPRPRPRPNWFPRP | 0.156
RRIRARPPRLPRPRPRPTDYPRP | -0.0499
RRIRHRPPRLPRPRPRPNWQPRP | -0.0282
RRIRTRPPRLPRPRPRPFVCPRP | -0.374
RRIRVRPPRLPRPRPRPKMRPRP | 0.329
RRIRNRPPRLPRPRPRPFHRPRP | -0.211
RRIRKRPPRLPRPRPRPIINPRP | 0.172
RRIRGRPPRLPRPRPRPWSLPRP | 0.094
RRIRFRPPRLPRPRPRPNWCPRP | -0.107
RRIRVRPPRLPRPRPRPMNNPRP | -0.694
RRIRCRPPRLPRPRPRPQPPPRP | 0.806
RRIRLRPPRLPRPRPRPFQMPRP | -0.193
RRIRGRPPRLPRPRPRPCTHPRP | -0.0414
RRIRERPPRLPRPRPRPDWDPRP | -0.248
RRIRNRPPRLPRPRPRPMYVPRP | 0.0786
RRIRIRPPRLPRPRPRPFYFPRP | -0.448
RRIRFRPPRLPRPRPRPMNAPRP | -0.054
RRIRGRPPRLPRPRPRPCTYPRP | 0.00971
RRIRARPPRLPRPRPRPCKWPRP | 0.146

Sequence | shrunken log2 fold change
RRIRIRPPRLPRPRPRPPNIPRP | -0.0703
RRIRFRPPRLPRPRPRPWLPPRP | -0.0149
RRIRQRPPRLPRPRPRPLHEPRP | 0.149
RRIRRRPPRLPRPRPRPAMRPRP | 0.538
RRIRTRPPRLPRPRPRPPWFPRP | 0.0438
RRIRIRPPRLPRPRPRPTATPRP | 0.0371
RRIRHRPPRLPRPRPRPWRHPRP | -0.00865
RRIRSRPPRLPRPRPRPVNEPRP | -0.0746
RRIRHRPPRLPRPRPRPEMRPRP | 0.122
RRIRNRPPRLPRPRPRPLRPPRP | 0.998
RRIRARPPRLPRPRPRPMEDPRP | -0.0391
RRIRPRPPRLPRPRPRPTYAPRP | 0.133
RRIRARPPRLPRPRPRPESAPRP | 0.858
RRIRDRPPRLPRPRPRPAKRPRP | -0.161
RRIRFRPPRLPRPRPRPVWLPRP | -0.0732
RRIRERPPRLPRPRPRPHAAPRP | -0.0217
RRIRNRPPRLPRPRPRPDERPRP | 0.0408
RRIRDRPPRLPRPRPRPERRPRP | 0.0137
RRIRDRPPRLPRPRPRPDSTPRP | -0.00421
RRIRGRPPRLPRPRPRPPECPRP | 0.483
RRIRLRPPRLPRPRPRPRAMPRP | 0.373
RRIRKRPPRLPRPRPRPSIYPRP | -0.353

Sequence | shrunken log2 fold change
RRIRGRPPRLPRPRPRPYEGPRP | -0.199
RRIRDRPPRLPRPRPRPSSWPRP | -0.0298
RRIRQRPPRLPRPRPRPWWIPRP | -0.185
RRIRRRPPRLPRPRPRPETWPRP | 0.234
RRIRERPPRLPRPRPRPHMIPRP | 0.0284
RRIRFRPPRLPRPRPRPQIMPRP | -0.736
RRIRIRPPRLPRPRPRPLWIPRP | -0.445
RRIRYRPPRLPRPRPRPFYLPRP | -0.955
RRIRSRPPRLPRPRPRPVHIPRP | -0.124
RRIRPRPPRLPRPRPRPDKGPRP | 0.118
RRIRPRPPRLPRPRPRPPKFPRP | 0.0927
RRIRKRPPRLPRPRPRPQNKPRP | 0.0275
RRIRYRPPRLPRPRPRPFYIPRP | -1.26
RRIRCRPPRLPRPRPRPDEQPRP | -0.00573
RRIRCRPPRLPRPRPRPIVWPRP | 0.102
RRIRWRPPRLPRPRPRPERKPRP | -0.0287
RRIRLRPPRLPRPRPRPWINPRP | -0.43
RRIRYRPPRLPRPRPRPMPTPRP | 0.0288
RRIRHRPPRLPRPRPRPMLAPRP | -0.144
RRIRERPPRLPRPRPRPTVLPRP | -0.0263
RRIRYRPPRLPRPRPRPFKNPRP | -0.426
RRIRMRPPRLPRPRPRPGLGPRP | 0.914

Sequence | shrunken log2 fold change
RRIRPRPPRLPRPRPRPDANPRP | 0.172
RRIRPRPPRLPRPRPRPYQRPRP | 0.0369
RRIRTRPPRLPRPRPRPDMYPRP | -0.235
RRIRMRPPRLPRPRPRPPIVPRP | -0.112
RRIRDRPPRLPRPRPRPPMIPRP | -0.588
RRIRFRPPRLPRPRPRPFACPRP | -0.189
RRIRHRPPRLPRPRPRPIQDPRP | -0.00151
RRIRHRPPRLPRPRPRPHHVPRP | -0.35
RRIRHRPPRLPRPRPRPFWVPRP | -0.00136
RRIRQRPPRLPRPRPRPWQWPRP | -0.133
RRIRNRPPRLPRPRPRPKYFPRP | -0.0727
RRIRHRPPRLPRPRPRPAKHPRP | -0.0767
RRIRNRPPRLPRPRPRPCNVPRP | -0.00963
RRIRRRPPRLPRPRPRPPVKPRP | 0.369
RRIRGRPPRLPRPRPRPGQEPRP | 0.974
RRIRGRPPRLPRPRPRPDSLPRP | -0.0456
RRIRSRPPRLPRPRPRPINMPRP | -0.928
RRIRYRPPRLPRPRPRPHVFPRP | -0.0822
RRIRKRPPRLPRPRPRPWNTPRP | -0.332
RRIRQRPPRLPRPRPRPSIWPRP | -0.0257
RRIRPRPPRLPRPRPRPYGLPRP | -0.857
RRIRWRPPRLPRPRPRPGRRPRP | 0.106

Sequence | shrunken log2 fold change
RRIRYRPPRLPRPRPRPWRKPRP | -0.296
RRIRVRPPRLPRPRPRPAVGPRP | 0.186
RRIRLRPPRLPRPRPRPPMEPRP | 0.347
RRIRYRPPRLPRPRPRPFNDPRP | -0.102
RRIRFRPPRLPRPRPRPKTAPRP | 0.295
RRIRLRPPRLPRPRPRPEVPPRP | 0.0129
RRIRCRPPRLPRPRPRPDTVPRP | -0.369
RRIRYRPPRLPRPRPRPGINPRP | -0.227
RRIRQRPPRLPRPRPRPNKYPRP | -0.686
RRIRGRPPRLPRPRPRPQKHPRP | 0.982
RRIRFRPPRLPRPRPRPHNLPRP | -0.104
RRIRPRPPRLPRPRPRPKPKPRP | 0.382
RRIRDRPPRLPRPRPRPTNSPRP | 0.115
RRIRIRPPRLPRPRPRPTCDPRP | -0.369
RRIRLRPPRLPRPRPRPCDRPRP | -0.114
RRIRMRPPRLPRPRPRPWRWPRP | 0.205
RRIRTRPPRLPRPRPRPWDMPRP | -0.33
RRIRARPPRLPRPRPRPHFQPRP | 0.0811
RRIRRRPPRLPRPRPRPHPRPRP | 1.03
RRIRYRPPRLPRPRPRPVQEPRP | -0.149
RRIRKRPPRLPRPRPRPTQVPRP | 0.312
